The data set can be described thus: yeast display, Sf9 membrane polyspecificity reagent, FACS + sequencing; frameworks hold sequencing errors. In a few lines: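 Sorting gates, low and high (top ~1%), were placed on anti-HA fluorescence to track expression and on streptavidin fluorescence to track reagent binding. A clone's polyreactivity label is taken from the gate it came out of. The reagent was 10% biotinylated, detergent-solubilized Sf9 membrane, applied for 1 hour at 4 °C to galactose-induced yeast display cells.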
As to “QVQLLESGCGLVQAGGSLRLSCMASGSILGDRMSWYRQAPGKEHELVATIYDGGITYYADSMKGRFTISRDNAKNTVYLQMNSLRPEDTAVYYCGASFEGYRYHVYCGQGTQVTVSS”, the “polyreactivity (PSR sort gate)” value is reported as “low polyreactivity”.
“QVQLVESGGGLVQAGGSLRLICAASGFTFCLYAMGWYRQAPGKERELVADIDWDGGTYYADSVKGRFTISRDNAKNTVYLQMNSLKPEDTAVYYCAAELTEWTNGFDYWGQGTQETVSS”: the “polyreactivity (PSR sort gate)” value is “high polyreactivity”.
The entry for “QVQLVEAGGGLVQAGGSLRLSCAASGRIFVPYAMGWYRQAPGKEWELVAGISWSGGSTYYADSVKGRFTISRDNAKNTVYLQMNNLKPEDTPVYYCAAAKRRRPFDYWGQGTQVTVSS” is “high polyreactivity”.
With “QVQLVESGGGLVQAGGSLRLSCAASGRIFSDYVMGWYRQAPGKERELVADITGGGSTYYADSVKGRFTISRDNAKNTVYLQMNSLKPEDTAVYYCAARVYSYWDRSQRYYYCGQGTQVTVSS” the entry was “high polyreactivity”.
With “QVQLVESGGGLVQAGGSLLLSCAASGFTFRYYAMGWYRQAPGTERELVAAISSGGNTRYADSVKGRFTISRDNAKITVYLQLNSLKPEDTAVYYCARRPGAPRESYDYWGQGTQVTVSS” the entry was “high polyreactivity”; with “QVQLVESGGGLVQAGGSLRLSCAASGFTFSDNAMGWYRQAPGKERELVAASSRSGGRTYYADSVKGRFTISRDNAKNTVYLQMNSLKPEDTAVYYCNARRLSTGFDRYDYWGQGTQVTVSS”, “high polyreactivity”; with “QVQLVESGGGLVQAGGSLRLSCAASGSTFYKSTMGCYRQPPGKESELVPAISGSATTTYYADSVKGRFTISRDNAKNTVYLQMNSLKPEDTAVYYCAARRFSPGSSGHGYWGQGTQVNVSS”, “high polyreactivity”.
Turning to “QVQLQESGGGLVQAGGSLRLSCAASGYISSWYPMGWYRQAPGKEREFVATIAPRATTYYADSVKGRFTISRDYAKNTVYLQMNSLKPEDTAVYYCAAGPENNDVYSYWGQGTQVTVSS”, the “polyreactivity (PSR sort gate)” value is “low polyreactivity”.
With “QVQLVESGGGLVQAGGSLRLSCAASRSIFYDYVMGWYRQAPGKEREFVAAISWGGDSTYYADSVKGRFTISRDNAKNTVYLQMISLKPEDTAVYYCNADYPWSVVGYDYWGQGTQVTVSS” the entry was “low polyreactivity”; with “QVQLVESGGGLVQAGGSLRLSCAASGIIFGPNAMGWYRQAPGKERELVAGIDWSTDSTYYADSVKGRFTLSRDNAKNTVYLQMNSLKPEDTAVYYCAVAENKRFGSVGYYYWGQGTQVTVSS”, “low polyreactivity”.
The entry for “QVQLVESGGGLVQAGGSLRLSCAASGRTLWTNAMGWYRQAPGKEREFVAPITWRGGSTYYADSVKGRFTISRDNAKNTVNLQMNSLKPEDTAVYYCATLIPRKGSRYYHRGYWGQGSQVTVSS” is “high polyreactivity”; for “QVQHVESGGGLVQAGGSLRLSCAASGSIFPVYAMRWYRQAPGKEREFVASIRWRGGSTSYADSVKGRFTISRDNAKNTVYLQMNSLKPEDTAVYYCNAVYYSWAQSARFDYWGQGTQVTVSS” it is “low polyreactivity”.
With “QVHLVESGGGLVQAGGSLRFSCAASGSTFDDYAMGWYRQAPGKERELVAAISRSDGSTSYADSVKGRFTISRDNAKNTVYLQMNSLKPEDTAVYYCAADPVFKDDLWPVRVRVDYWGQGTQVTVSS” the entry was “low polyreactivity”; with “QVQLVESGGGLVQAGGSLRLSCAASGLTFSRNAMGGYRQAPGKERELVAGISVSGSITFYADSVKGRFTISRDNAKNTVYLQMNSLKPEDTAVYYCAARYRYRYTPSVTGYDYWGQGTQVTVSS”, “high polyreactivity”; with “QVQLVESGGGLVQAGGSLRLSCAASGLTFDLYNMGVYRKAPGKERELVAAISLSGGSTYYADSVKGRFTISRDNAKNTVYLQMNILKPDYTAVYYCAAAHSSSVIVEYDYWGQGTQVTVSS”, “low polyreactivity”.
As for “QVQLVESGGGLVQAGGSLRLSCAASGRIFVYYAMGWYRQAPGKERELVASISYSGASTYYADSVKGRFTISRDNAKNTVYLQMNSLKPEDTAVYYCNTDGDDFFHVIYDYWGQGTQVTVSS”, the “polyreactivity (PSR sort gate)” value is “low polyreactivity”.
The entry for “QVQLVESGGGLVQAGGSLRLSCAPSGTTFTRNAMGWYREAPGKERELVAAISFSGGSTYYADSVKGRFTISRDNAKNTVYIQMNSLKPEDTAVYYCATKVEYRYYYWGQGTQVTVSS” is “high polyreactivity”; for “QVQLVESGGGLVQAGGILRLSCAASGFIFDSYAMGWYRQAPGKERELVAAINWNGGRTYYADSVKGRFTISRDNAKNTVYLQMNRLKPEDTAVYYCAKDTDNWDVGGYVYDYDYWGQGTQVTVSS” it is “high polyreactivity”.
With “QVQLVESGGGLVQAGGSLRLSCAASGRTLRYYAMGWYRQAPGKERELVAAITSSDRTYYADSVKGRFTISRDNAKNTVYLQMNSLKPEVTAVYYCAAYRATQFGYYYWGQGTQVTVSS” the entry was “high polyreactivity”; with “QVQLVESGGGLVQAGGSLSLSCAASARTFYGSAKGWYRQAPGKERELVAAINYSGGRTYYADSVKGRFTISRDNAKNTVYLQMNSLKAEDTAGYYCAAPRASGYYWGQGTQVTVSS”, “high polyreactivity”.
With “QVQLVESGGGLVQAGGSLRLSCAASGITLTKNAMGWYSQAPGKERELVAGITRGSRTNYADSVKGRFTISRDNAKNTVYLQMNSLKPEDTAVYYCAASYWPYRGPVGGSKMYYWGQGTQVTVSS” the entry was “high polyreactivity”; with “QVQLVESGGGLVQAGGSLRLSCAASGSIFTLYVMGWYRQAPGKERELVAAITWSGGSTYYADSVKGRFTISRDNAKNTVYLQMNSLKTEDPAVYYCNADVRWDSQDYYYWGQGTQVTVSS”, “low polyreactivity”.
As to “QVQIVESGGVLDQAGGSLRLSCAATGSTFAKNAMGWYRQAPGKERELVAAITSGGSTYYADSVKGRFTISRDNAKNTVYLQMYSLKPEDTAVYYCAVDYPWDIFIYWVQNYDHWGHGTQVTVSS”, the “polyreactivity (PSR sort gate)” value is reported as “high polyreactivity”.
The entry for “QVQLQESVGGLVQASGSIFHVPNMGWYRQAPGNERELVAGLAGGGNTNYADIVKGRFTISRDNAKNTVYLQRNSLDTAVYYCAVVGFGRGTHIYWGQGTQVTVSS” is “high polyreactivity”.
With “QVQLVESGGGLVPAGGSLRLSCAASGRTFYTNSMGWYRQAPGKERELVAAITYSGGSTYYADSVKWRFTISRDNAKNTVYLHMNSLKPEDTAVYYCAADYRAPLDYWGQGTQVTVSS” the entry was “low polyreactivity”; with “QVQLVESGGGLVQAGGSLRLSCAASGIIFWHYAMGRYIQAPGKERELVADISRRGGSTYYADSVKGRFTISRDNAKNTVYLQMNSLKPVDTAVYYCAARYHPGGYDSWGQGTQVTVSS”, “low polyreactivity”.
For “QVQLVESVGGLVQAGGSLRLSCAASGFIFKSYSMGWYRQAPGKERELVAAISGRGGSTYYADSVKGRFTISRDNAKNTVYLQMNSLKPEDTAVYYCNVVPSTYYQYDYWGQGTQVTVSS”, the “polyreactivity (PSR sort gate)” value is “high polyreactivity”.
With “QVQLVESRGGLVQAGGSLPLSCAASGFIFTSYAMGWYRQAHGKEREFVAAISGSGGSTYYADSVKGRFTISRDNAKNTVYLQMNSLKPEDTAVYYCAAESWVGYYLYWYDYWGQGTQVTVSS” the entry was “high polyreactivity”; with “QVQLVESGGGLVQAGGSLRLSCAASGFTFCRNTMGWYRQAPGKEREFVAAIDWSGGSTTYADSVKGRFTISRDNAKNTVYLQMNSLKPEDTAVYYCAADERRRHYWWGQESDYWGQGTQVNVSS”, “low polyreactivity”; with “QVQLVESGGGLVQAGGSLRLSCAASGSIFARYVMGWYRQAPGKERELVAAISRGGRTKYADSVKGRFTISRDNAKNTVYLQMNSLKPEDTAVYYCAAEPFNGRTDLDYWGQGTQVTVSS”, “high polyreactivity”.
